For 1 molecule, fold of NAP1L1 bound against H2A.Z^WT results are on record in publication PMC3749939.

The target in the test is Mutant H2A.Z^AP3-YFP (mouse). The experiment in a line: co-IP; immunoprecipitation with GFP antibodies of the YFP-tagged histone from dox-induced transgenic ESCs (endogenous H2A.Z knockdown background), immunoblot of the partners; uninduced cells (No DOX) as negative controls; densitometry in ImageJ. (In general: A western blot detects proteins with antibodies after separation by electrophoresis.)

Where only a bound is given, the exact number is not on record here.

B1: NAP1L1 (natural protein)
chain: MADIDNKEQSELDQDLEDVEEVEEEETGEETKIKARQLTVQMMQNPQILAALQERLDGLVDTPTGYIESLPKVVKRRVNALKNLQVKCAQIEAKFYEEVHDLERKYAVLYQPLFDKRFEIINAIYEPTEEECEWKPDEEDEVSEELKEKAKIEDEKKDEEKEDPKGIPEFWLTVFKNVDLLSDMVQEHDEPILKHLKDIKVKFSDAGQPMSFVLEFHFEPNDYFTNEVLTKTYRMRSEPDDSDPFSFDGPEIMGCTGCQIDWKKGKNVTLKTIKKKQKHKGRGTVRTVTKTVSNDSFFNFFAPPEVPENGDLDDDAEAILAADFEIGHFLRERIIPRSVLYFTGEAIEDDDDDYDEEGEEADEEGEEEGDEENDPDYDPKKDQNPAECKQQ
As for B1, the fold of NAP1L1 bound against H2A.Z^WT was under 2 fold.
